According to US6890900B2, “Methods for treating or preventing diseases of the oral cavity” (Campina B.V., priority 2001, dated 2005):

Columns and labels:
Test in all cases: LF/GMP assay, viable plate count (pour plate) of broth culture
Assay type in all cases: cell-based
[1] = tested on: Pseudomonas aeruginosa ATCC #27853; design: key to MIBC: NCF: No Effective Concentration Found; settings: for Colony Counts: viable plate count
Protocol: Bacterial strains used in this study were Pseudomonas aeruginosa ATCC #27853, Streptococcus mutans ATCC #33535, Streptococcus pyogenes ATCC #19615, and Actinobacillus haemophilus ATCC #43717 and an oral swab from a healthy adult. Bacteria were grown on blood/BHT media (Brain Heart Infusion Agar with protease peptone, sodium chloride, glucose, di-sodium phosphate, and agar, Oxoid, Hampshire England, Sheep's Blood) in the presence of 5% CO2 at 35° C. Bacteria were harvested by swabbing inoculated growth plates after 24 hours and diluting the colonies in 9 ml of deionized water (DI water) until a suspension of 0.5 McFarland Turbidity Standard was reached using the nephelometer (McFarland Turbidity Meter). The 0.5 McFarland value is approximately equivalent to 1.0×10^8 organisms. One ml of the appropriate bacterial dilution was taken using a sterile pipette and introduced into 8 ml of sterilized BHI broth. (Preparation of BHI broth: 37 g+1,000 ml DI water, Difco Laboratories. By pipette, 9 ml of broth was placed into medium test tubes as means of a control and 8 ml test tubes were prepared for the concentration tests).
This solution was filtered through a 0.45 μm filter. […] Example for calculating 2,500 ppm dilution (1,000 ppm=0.1%): [formula] [formula] [formula] […]
One mL of each bacterial strain, plus one mL of sialic acid solution (1,000 ppm) were inoculated into test tubes filled with 8 mL of BHI broth. Each test tube was vortexed, incubated for 24 hours at 35° C. with 5% CO2, and then pour plated in BHI agar to obtain a plate count.
This technique was used to determine the density of living (viable) cells in inoculated broth cultures. It involves plating a bacterial sample and counting the resulting colonies after incubation. A serial dilution of the original broth was taken prior to plating. The serial dilution is necessary to reduce the density of organisms in order to create countable plates. Only plates containing between 25 and 250 colonies are considered countable. Cell densities are traditionally recorded as CFU (colony forming unit)/ml. By convention, when 1.0 ml is inoculated onto a plate, the dilution factor (DF) is recorded as tenfold greater. Formula: [formula]
The assays required the use of a pour plate technique. The pour plate technique adds a step to the conventional serial dilution. The 1 ml of dilution is added to a warm emulsion of dilute nutrient (BHI) agar to produce an agar overlay in the petri plates. After incubation, the bacterial growth covers the entire plate but individual cellular movement has been restricted by the soft agar overlay. Each colony formed is assumed to have originated from a single CFU. The plates were gently mixed, inverted, and incubated for 18-24 hour at 35° C. […]

[2] = tested on: Actinobacillus haemophilus ATCC #43717; settings: 35° C.; for Colony Counts: viable plate count
Protocol: (§1) Bacterial strains used in this study were Pseudomonas aeruginosa ATCC #27853, Streptococcus mutans ATCC #33535, Streptococcus pyogenes ATCC #19615, and Actinobacillus haemophilus ATCC #43717 and an oral swab from a healthy adult. Bacteria were grown on blood/BHT media (Brain Heart Infusion Agar with protease peptone, sodium chloride, glucose, di-sodium phosphate, and agar, Oxoid, Hampshire England, Sheep's Blood) in the presence of 5% CO2 at 35° C. […] One ml of the appropriate bacterial dilution was taken using a sterile pipette and introduced into 8 ml of sterilized BHI broth. […] By pipette, 9 ml of broth was placed into medium test tubes as means of a control and 8 ml test tubes were prepared for the concentration tests). […] This solution was filtered through a 0.45 μm filter. […] To study the kinetics of LF/GMP binding, each strain of bacteria was taken separately with a sterile pipette and placed into an 8 ml BHI broth test tube, vortexed, and incubated in the presence of 1 ml of LF or GMP for 18-24 hours at 35° C. with 5% CO2. In the combination procedure, 0.5 ml of both LF and […] were taken as 1 ml inoculations. One mL of each bacterial strain, plus one mL of sialic acid solution (1,000 ppm) were inoculated into test tubes filled with 8 mL of BHI broth. Each test tube was vortexed, incubated for 24 hours at 35° C. with 5% CO2, and then pour plated in BHI agar to obtain a plate count. This technique was used to determine the density of living (viable) cells in inoculated broth cultures. It involves plating a bacterial sample and counting the resulting colonies after incubation. A serial dilution of the original broth was taken prior to plating. The serial dilution is necessary to reduce the density of organisms in order to create countable plates. Only plates containing between 25 and 250 colonies are considered countable. Cell densities are traditionally recorded as CFU (colony forming unit)/ml. […] Formula: [formula] The assays required the use of a pour plate technique. The pour plate technique adds a step to the conventional serial dilution. The 1 ml of dilution is added to a warm emulsion of dilute nutrient (BHI) agar to produce an agar overlay in the petri plates. After incubation, the bacterial growth covers the entire plate but individual cellular movement has been restricted by the soft agar overlay. Each colony formed is assumed to have originated from a single CFU. The plates were gently mixed, inverted, and incubated for 18-24 hour at 35° C. Using a control (one broth tube inoculated with a bacterial strain, but no LF), the effectiveness of LF was examined. Each test tube containing a specified amount of LF (50, 100, 250, 500, 1,000 ppm and 3000 ppm) was diluted and plates were poured. […] A. haemophilus, S. mutans, S. pyrogenes and an oral culture were tested at 35° C. Pseudomonas aeruginosa was tested at both room temperature and 35° C. with 5% CO2. This was done because P. aeruginosa is not strictly an oral pathogen. It is commonly found in the environment in various conditions. It can be found in the environment and oral intake can cause inflammation in the oral cavity. Most normal oral bacteria are only found in the mouth and are not taken in from outside factors. Therefore, P. aeruginosa is a threat in both temperature settings. […] (see Table 2).

[3] = tested on: Streptococcus mutans ATCC #33535; settings: 35° C.; for Colony Counts: viable plate count
Protocol: as §1

[4] = Lactoferrin/GMP 250/0 ppm (LF alone)
[5] = Lactoferrin/GMP 3,000/0 ppm (LF alone)
[6] = Lactoferrin/GMP 3,000/0 ppm (LF alone), listed as Lactoferrin

B1: LF: Bovine lactoferrin, iron-binding glycoprotein purified from milk, provided by DMV International (protein, UniProt P24627 20-708, looked up)
Lactotransferrin: APRKNVRWCTISQPEWFKCRRWQWRMKKLGAPSITCVRRAFALECIRAIAEKKADAVTLDGGMVFEAGRDPYKLRPVAAEIYGTKESPQTHYYAVAVVKKGSNFQLDQLQGRKSCHTGLGRSAGWIIPMGILRPYLSWTESLEPLQGAVAKFFSASCVPCIDRQAYPNLCQLCKGEGENQCACSSREPYFGYSGAFKCLQDGAGDVAFVKETTVFENLPEKADRDQYELLCLNNSRAPVDAFKECHLAQVPSHAVVARSVDGKEDLIWKLLSKAQEKFGKNKSRSFQLFGSPPGQRDLLFKDSALGFLRIPSKVDSALYLGSRYLTTLKNLRETAEEVKARYTRVVWCAVGPEEQKKCQQWSQQSGQNVTCATASTTDDCIVLVLKGEADALNLDGGYIYTAGKCGLVPVLAENRKSSKHSSLDCVLRPTEGYLAVAVVKKANEGLTWNSLKDKKSCHTAVDRTAGWNIPMGLIVNQTGSCAFDEFFSQSCAPGADPKSRLCALCAGDDQGLDKCVPNSKEKYYGYTGAFRCLAEDVGDVAFVKNDTVWENTNGESTADWAKNLNREDFRLLCLDGTRKPVTEAQSCHLAVAPNHAVVSRSDRAAHVKQVLLHQQALFGKNGKNCPDKFCLFKSETKNLLFNDNTECLAKLGGRPTYEEYLGTEYVTAIANLKKCSTSPLLEACAFLTR
Colony Counts ([1]; 50 ppm, 35° C., 24 h): 4.6 × 10^8 | Colony Counts ([1]; 100 ppm, 35° C., 24 h): 3.6 × 10^8 | Colony Counts ([1]; 250 ppm, 35° C., 24 h): 2.6 × 10^8 | Colony Counts ([1]; 1,000 ppm, 35° C., 24 h): 3.2 × 10^8 | Colony Counts ([1]; 3,000 ppm, 35° C., 24 h): 1.2 × 10^8 | Total Log Reduction ([1]; Lactoferrin/GMP 250/0 ppm (LF alone), 23° C. (room temperature)): 1 log | Total Log Reduction ([1]; Lactoferrin/GMP 250/0 ppm (LF alone), 35° C.): 0 log | Total Log Reduction ([1]; Lactoferrin/GMP 3,000/0 ppm (LF alone), 23° C. (room temperature)): 0 log | Total Log Reduction ([1]; Lactoferrin/GMP 3,000/0 ppm (LF alone), 35° C.): 0 log | # Log Reductions ([1]; at the MIBC, vs control, 35° C.): 0 log | MIBC ([1]; single agent, 35° C., 24 h, 5% CO2): NCF | Colony Counts ([2]; 50 ppm, 24 h): 2.6 × 10^8 | Colony Counts ([2]; 100 ppm, 24 h): 2.5 × 10^8 | Colony Counts ([2]; 250 ppm, 24 h): 2.5 × 10^8 | Colony Counts ([2]; 500 ppm, 24 h): 2.3 × 10^8 | Colony Counts ([2]; 1,000 ppm, 24 h): 2.4 × 10^8 | Colony Counts ([2]; 3,000 ppm, 24 h): 5.3 × 10^7 | Total Log Reduction [2, 4]: 0 log | Total Log Reduction [2, 5]: one log | Total Log Reduction [2, 6]: 1 log | # Log Reductions ([2]; at the MIBC, vs control): 1 log | MIBC ([2]; single agent, 24 h, 5% CO2): 3,000 ppm | Colony Counts ([3]; 50 ppm, 24 h): 1.9 × 10^8 | Colony Counts ([3]; 100 ppm, 24 h): 1.9 × 10^8 | Colony Counts ([3]; 250 ppm, 24 h): 1.7 × 10^8 | Colony Counts ([3]; 500 ppm, 24 h): 1.4 × 10^8 | Colony Counts ([3]; 1,000 ppm, 24 h): 1.2 × 10^8 | Colony Counts ([3]; 3,000 ppm, 24 h): 5.5 × 10^7 | Total Log Reduction [3, 4]: 0 log | Total Log Reduction [3, 5]: one log | Total Log Reduction [3, 6]: 1 log | # Log Reductions ([3]; at the MIBC, vs control): 1 log | MIBC ([3]; single agent, 24 h, 5% CO2): 3,000 ppm
